Assay in all cases: phage ELISA
On the technique in general: In an ELISA, binding on a coated surface is turned into a signal by an enzyme label.

In assay [1] the target is T1, E-cadherin/Fc chimeric protein (human, UniProt P12830 155-707).
T1 construct: range 155-707; Bought from R&D Systems; also called E-cad/Fc; human E-cadherin/Fc chimeric protein; not shown: Fc region of human IgG1
T1 sequence (looked up): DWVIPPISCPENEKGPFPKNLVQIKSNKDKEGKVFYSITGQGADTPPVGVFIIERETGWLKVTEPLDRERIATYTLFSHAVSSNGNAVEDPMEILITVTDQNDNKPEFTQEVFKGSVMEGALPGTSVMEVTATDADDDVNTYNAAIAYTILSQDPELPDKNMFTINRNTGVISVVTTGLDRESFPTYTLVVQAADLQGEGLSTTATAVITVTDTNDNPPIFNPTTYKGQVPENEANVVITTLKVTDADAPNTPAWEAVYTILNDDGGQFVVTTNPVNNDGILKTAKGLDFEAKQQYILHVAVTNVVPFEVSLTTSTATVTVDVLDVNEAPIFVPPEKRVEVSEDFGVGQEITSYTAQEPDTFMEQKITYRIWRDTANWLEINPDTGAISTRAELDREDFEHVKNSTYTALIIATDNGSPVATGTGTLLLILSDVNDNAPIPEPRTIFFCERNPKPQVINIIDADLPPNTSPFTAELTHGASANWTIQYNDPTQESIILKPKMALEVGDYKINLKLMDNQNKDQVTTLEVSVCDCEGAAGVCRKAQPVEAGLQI
Here is the method:
(§1) The binding of each clone to the cadherin/Fc chimeric proteins was confirmed by ELISA. Wells of ProBind microtiter plates (Falcon) were coated with either N-cadherin/Fc or E-cadherin/Fc chimeric protein (100 ng/well) or human IgG1 (which contains the Fc fragment) (100 ng/well). After blocking the nonspecific sites with TBS containing 3% BSA and 1.2 mM CaCl₂ for 1 h at 37° C., phage clones (10⁹ pfu) diluted in TBST containing 3% BSA and 1.2 mM CaCl₂ (100 μl/well). Non-coated wells were also used to exclude any phage that bound to the plastic surface. After 1 h incubation at room temperature, wells were washed 3 times with TBST containing 3% BSA and 1.2 mM CaCl₂. M13 phage without any insert were used to control the non-specific binding of the phage itself to the target. Monoclonal anti-M13 antibody conjugated to horseradish peroxidase (Amersham Biosciences, Piscataway, N.J.) was diluted in TBST containing 3% BSA and 1.2 mM CaCl₂ (1:2,000) and added to each well (100 μl/well). After 1 h incubation at room temperature, wells were washed three times with TBST containing 3% BSA and 1.2 mM CaCl₂ and once with TBS containing 1.2 mM CaCl₂. Horseradish peroxidase substrate, TMB (Sigma), was added to each well (100 μl/well and after color development the reaction was stopped by addition of 100 μl 0.5 M sulphuric acid to each well. The intensity of the color was measured at 450 nm.
(§2) The phage clones shown to bind to the N-cadherin/Fc chimeric protein by ELISA were also evaluated for their ability to bind to E-cadherin/Fc and VE-cadherin/Fc chimeric proteins. The phage clones shown to bind to the E-cadherin/Fc chimeric protein by ELISA were also evaluated for their ability to bind to N-cadherin/Fc and VE-cadherin/Fc chimeric proteins. The same ELISA protocol described in the previous section was used to perform this evaluation with the exception that the wells were coated with either 100 ng N-cadherin/Fc, E-cadherin/Fc or VE-cadherin/Fc chimeric protein (R&D Systems, Minneapolis, Minn.).

Assay [2] addresses T2, VE-cadherin/Fc chimeric protein (UniProt P33151 48-593).
T2 construct: Bought from R&D Systems; also called vascular endothelial (VE)-cadherin/Fc chimeric protein; not shown: Fc part not described
T2 sequence (looked up): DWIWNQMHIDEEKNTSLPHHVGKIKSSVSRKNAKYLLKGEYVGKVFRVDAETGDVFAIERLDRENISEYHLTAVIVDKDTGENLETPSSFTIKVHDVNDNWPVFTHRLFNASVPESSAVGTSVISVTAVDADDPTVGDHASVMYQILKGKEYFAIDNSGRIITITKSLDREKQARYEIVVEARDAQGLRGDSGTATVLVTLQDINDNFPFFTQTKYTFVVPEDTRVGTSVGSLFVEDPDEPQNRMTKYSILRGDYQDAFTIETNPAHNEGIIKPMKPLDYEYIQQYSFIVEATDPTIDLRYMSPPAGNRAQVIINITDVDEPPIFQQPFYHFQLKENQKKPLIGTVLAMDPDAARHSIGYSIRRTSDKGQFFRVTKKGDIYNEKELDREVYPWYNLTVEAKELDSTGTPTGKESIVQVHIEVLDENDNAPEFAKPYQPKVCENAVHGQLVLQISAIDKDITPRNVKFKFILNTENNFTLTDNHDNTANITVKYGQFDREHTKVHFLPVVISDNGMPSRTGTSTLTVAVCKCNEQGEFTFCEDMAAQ
Here is the method: as §1, §2

Assay [3] deals with T3, N-cadherin/Fc chimeric protein (human, UniProt P19022 160-724).
T3 construct: range 160-724; Bought from R&D Systems; also called N-cad/Fc; human N-cadherin/Fc chimeric protein; not shown: Fc region of human IgG1
T3 sequence (looked up): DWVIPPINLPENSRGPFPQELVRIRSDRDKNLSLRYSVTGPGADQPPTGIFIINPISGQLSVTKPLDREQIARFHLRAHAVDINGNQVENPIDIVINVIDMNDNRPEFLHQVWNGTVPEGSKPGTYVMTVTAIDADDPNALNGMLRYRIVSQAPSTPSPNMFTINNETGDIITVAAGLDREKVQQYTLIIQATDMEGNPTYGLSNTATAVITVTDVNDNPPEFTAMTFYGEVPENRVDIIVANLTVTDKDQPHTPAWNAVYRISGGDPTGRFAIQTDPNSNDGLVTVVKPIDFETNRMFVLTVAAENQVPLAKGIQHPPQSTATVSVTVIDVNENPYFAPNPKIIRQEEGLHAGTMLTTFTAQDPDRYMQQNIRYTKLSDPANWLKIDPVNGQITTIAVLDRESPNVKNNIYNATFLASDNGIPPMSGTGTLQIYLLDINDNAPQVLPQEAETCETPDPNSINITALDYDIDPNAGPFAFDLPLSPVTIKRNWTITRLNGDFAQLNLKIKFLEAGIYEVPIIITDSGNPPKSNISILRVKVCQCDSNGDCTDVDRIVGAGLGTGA
Here is the method:
as §1, §2

With EWTWVFPTTHTS (whole phage in the assay) [phage clone Ec 12-07], the binding result is listed as “binds” in assay [1], “no binding (tested: 10^9 pfu)” in assay [2] and “binds” in assay [3].
As to QWEWHYMAGYLA (whole phage in the assay) [phage clone Ec 12-15], the binding result is given as “binds” in assay [1], “no binding (tested: 10^9 pfu)” in assay [2] and “binds” in assay [3].
On to EWTFQWNSYPAD (whole phage in the assay) [phage clone Ec 12-10], for which the results for the binding result in assay [1], in assay [2] and in assay [3] were “binds”, “no binding (tested: 10^9 pfu)” and “binds”, respectively.
Consider QWTYYLPLTPRW (whole phage in the assay) [phage clone Ec 12-a4], for which the binding result in assay [1] is “binds”; in assay [2] it was “no binding (tested: 10^9 pfu)”; in assay [3], “binds”.
In the case of GWTVFYPDNLRP (whole phage in the assay) [phage clone Ec 12-18], the binding result in assay [1] is listed as “binds”; in assay [2], “no binding (tested: 10^9 pfu)”; in assay [3], “binds”.

B1: phage clone Ec 12-13 (peptide)
peptide: QWTITYPKPPAL
notes: whole phage in the assay; also called QWTITYPKPPAL
For B1, the binding result in assay [1] is given as “binds”; in assay [2], “no binding (tested: 10^9 pfu)”; in assay [3], “binds”.
Regarding QWEIRYPWPSMG (whole phage in the assay) [phage clone Ec 12-a1], the binding result in assay [1] was “binds”; in assay [2] it was “no binding (tested: 10^9 pfu)”; in assay [3] it was “binds”.
As for EWQYHWPTLQSR (whole phage in the assay) [phage clone Ec 12-22], the binding result in assay [1] is reported as “binds”; in assay [2], “no binding (tested: 10^9 pfu)”; in assay [3], “binds”.
Take EWDFFWPPTQTP (whole phage in the assay) [phage clone Ec 12-19]: the binding result in assay [1] is “binds”; in assay [2], “no binding (tested: 10^9 pfu)”; in assay [3] it was “binds”.
On to EWFWSWPGYSNT (whole phage in the assay) [phage clone Ec 12-a13], for which the values for the binding result in assay [1], in assay [2] and in assay [3] were “binds”, “no binding (tested: 10^9 pfu)” and “binds”, respectively.
As for SWTWHFPESPPP (whole phage in the assay) [phage clone Ec 12-01], the values for the binding result in assay [1], in assay [2] and in assay [3] were “binds”, “no binding (tested: 10^9 pfu)” and “binds”, respectively.
As for SWTFYWPDAQLG (whole phage in the assay) [phage clone Ec 12-06], the binding result is reported as “binds” in assay [1], “no binding (tested: 10^9 pfu)” in assay [2] and “binds” in assay [3].
Turning to EWTYTFPTAHSI (whole phage in the assay) [phage clone Ec 12-a18], the results for the binding result in assay [1], in assay [2] and in assay [3] were “binds”, “no binding (tested: 10^9 pfu)” and “binds”, respectively.
For QWQLHWPASKQA (whole phage in the assay) [phage clone Ec 12-11], the binding result is reported as “binds” in assay [1], “no binding (tested: 10^9 pfu)” in assay [2] and “binds” in assay [3].
On to SWELYYPLRANL (whole phage in the assay) [phage clone Ec 12-a2], for which the binding result is “binds” in assay [1], “no binding (tested: 10^9 pfu)” in assay [2] and “binds” in assay [3].

The values are drawn from patent publication US20100240066A1 (MCGILL UNIVERSITY, published 2010).
